In patent US20070004619A1, “Relaxin superfamily peptide analogues” (Howard Florey Institute of Experimental Physiology and …, priority 2003, published 2007):
Positions of bridges follow the written chain, without caps; N, C: chain ends. No end group written: not given here.

Key:
human LGR8 = biological target: T1, human LGR8 (Homo sapiens, UniProt Q8WXD0); assay: Functional cAMP assay: inhibition of the INSL3 response at the native INSL3 receptor (LGR8); format: cell-based; conditions: FIG. 4; human 293T cells stably transfected with human LGR8; cAMP ELISA
T1 construct: expressed in transfected cells; host or cells: human 293T cells, stably transfected
T1 sequence (Q8WXD0 whole entry): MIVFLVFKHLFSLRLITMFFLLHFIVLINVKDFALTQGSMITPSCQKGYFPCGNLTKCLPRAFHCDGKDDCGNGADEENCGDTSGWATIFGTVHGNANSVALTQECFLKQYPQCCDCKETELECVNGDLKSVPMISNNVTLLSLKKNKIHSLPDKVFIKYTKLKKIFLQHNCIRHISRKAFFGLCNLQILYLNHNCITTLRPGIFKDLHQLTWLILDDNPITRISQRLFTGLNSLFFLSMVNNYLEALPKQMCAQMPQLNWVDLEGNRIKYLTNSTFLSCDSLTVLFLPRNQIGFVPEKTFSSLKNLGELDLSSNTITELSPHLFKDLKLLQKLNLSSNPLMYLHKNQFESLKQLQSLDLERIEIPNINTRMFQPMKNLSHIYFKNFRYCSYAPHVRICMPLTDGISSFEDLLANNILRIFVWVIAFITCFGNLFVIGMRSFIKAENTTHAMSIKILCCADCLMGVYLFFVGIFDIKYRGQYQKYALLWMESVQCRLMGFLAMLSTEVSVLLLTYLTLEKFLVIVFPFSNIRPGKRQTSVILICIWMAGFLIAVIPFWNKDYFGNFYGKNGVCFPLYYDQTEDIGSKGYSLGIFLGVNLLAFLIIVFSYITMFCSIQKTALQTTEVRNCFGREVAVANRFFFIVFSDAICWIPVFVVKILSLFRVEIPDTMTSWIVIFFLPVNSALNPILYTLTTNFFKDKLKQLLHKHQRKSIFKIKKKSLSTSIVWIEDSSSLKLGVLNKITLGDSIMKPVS
Description: Human 293T cells stably transfected with human LGR7, or LGR8 were preincubated in the presence of 0.25 mM 3-isobutyl-1-methyl xanthine (IBMX, Sigma) before various treatments for 30 minutes. At the end of the incubation cells were lysed for measurement of cAMP using a well-characterized cAMP ELISA (Satoko et al., J Biol Chem, 278:7855-7862). All experiments were repeated at least three times using cells from independent transfections, Results are plotted as pmol cAMP/10^4 cells.

[1] = Circular dichroism (CD) spectroscopy; format: physicochemical; conditions: FIG. 5; in water and phosphate buffered saline
Description: Circular Dichroism (CD) Spectroscopy:
CD spectra were taken on a Jasco J-720 instrument at room temperature in a 1 mm path-length cell, Doubly distilled water, 10 mM sodium phosphate buffer containing 120 mM NaCl pH 7.4, and spectroscopy grade trifluoroethanol (TFE) were used as solvents. The peptide concentrations were made to 1 μM, determined by quantitative RP-HPLC and amino acid analysis (ref). Curves were smoothed by the algorithm provided by Jasco, Mean residue ellipticity ([θ]MR) is expressed in degrees×cm2/dmole by using the molecular mass. CD spectra evaluations were based on comparison with known peptide conformations (Otvos, L., Jr. 1996. from Neuropeptide protocols. Irvine, G. & Williams, C., Eds. pp 153-161. Humana Press, Totowa, N.J.).

- inhibition of the response of INSL3 (measured by cAMP response) to the native INSL3 receptor (LGR8) (human LGR8): antagonistic activity
Substance: cINSLa: cyclic INSL3 B-chain mimetic; Glu4 and Arg26 replaced with cysteine and a disulphide bond formed (PTPCMREKLCGHHFVRALVRVCGGPCWSTEA; disulfide 4-26; cysteine pairing not given here)
- alpha-helical content from CD spectra [1]: significant alpha-helical content
